In the Human Domainome abundance scans (Beltran et al. 2025):

B1: POU domain, class 3, transcription factor 1, residues 247 to 324; numbered along this chain, Q03052 (parent)
chain: EDAPSSDDLEQFAKQFKQRRIKLGFTQADVGLALGTLYGNVFSQTTICRFEALQLSFKNMCKLKPLLNKWLEETDSSS

Variants of: B1
Experiment: abundance fitness (aPCA) (normalised: wild type 0, dead -1); higher = more abundant; growth selection in yeast, the domain comes from the species named
Conditions: Homo sapiens

Abundance fitness: each site, then its substitutions
A52: L -0.275, V -1.02, R -0.001, H -0.141, K 0.163, I -0.56, D 0.041, M -0.341, W -0.728, G -0.156, Q 0.021, P -0.929, C -0.362, N 0.23, S 0.036
S56: A -0.472, D 0.031, F -0.719, R -0.501, L -0.88, H -0.724, V -0.945, G -0.198, Y -0.745, K -0.309, Q -0.577, I -0.717, C -0.439, M -0.818, T -0.287, E -0.31, P 0.09
F50: V -0.561, Y -0.089, R -0.785, S -0.802, W -0.742
Q54: C -0.441, N -0.187, V -0.497, P -0.62, A -0.089, H -0.035, F -0.858, E 0.011, K -0.098, I -0.316, T -0.145, W -0.669, R -0.195, L -0.376
M60: K -0.09, W -0.826, V -0.701, C -0.604, I -0.811, G -0.673, N 0.011, S -0.448, Q -1.05, P -1.18, T -0.396, A -0.244, R -0.826, E -0.948, L -0.256
L55: H -0.359, P -0.867, A -0.54, K -0.535, Y -0.46, F -0.311, T -0.746, V -0.45, G -0.514, C -0.064, Q -0.645, E -0.438, M -0.132, D -0.479, S -0.323, W -0.764, N -0.2
F57: C -0.394, D -0.063, Y 0.37, W -0.127, I -0.273, R -0.012, A -0.142, Q 0.015, T -0.047, M -0.048, H 0.031, S -0.152, K 0.005, G -0.275, V -0.144, P -0.014, L 0.003
E51: D -0.381, Q -0.686, F -0.756, T -0.668, V -0.525, M -0.503, K -0.414, G -0.251, H -0.98, R -0.501, P -0.781, N -0.461, S -0.723, Y -0.899, A -0.65, I -0.818, L -1.08
N59: V -0.031, A 0.08, I -0.197, R -0.017, M 0.04, H 0.096, S -0.084, L -0.074, T -0.128, W -0.223, D 0.193, C -0.198, Q -0.025, E 0.132, K 0.042, F -0.62, G -0.04
L53: T -0.336, F -0.256, R -0.052, I 0.064, V -0.055, A 0.042, E -0.494, N 0.319, S 0.051, H -0.111, W -0.478, Q -0.009, D -0.646, Y -0.112, P -0.759, K -0.135
K58: M -0.024, I -0.045, C -0.53, T 0.021, A -0.096, S -0.152, P 0.13, G -0.074, F -0.433, H -0.07, L -0.347, D -0.185, E 0.031, W -0.303, R -0.142, Q -0.012, V -0.272
